Consider one molecule from US20250154238A1 (YALE UNIVERSITY, published 2025).

Assay [1] addresses T1, recombinant human epiregulin containing the epidermal growth factor (EGF) domain (R&D Biosciences Cat … (human, UniProt O14944 63-108)). Description: cell-based or functional assay.
Assay [2] concerns the target T1, recombinant human epiregulin containing …. Put plainly: cell-based or functional assay. The source holds these as a separate data set.
Assay [3] has the same target. Description: cell-based or functional assay. This is another data set of the same source.
For assay [4] the target is unchanged. Put plainly: Octet bio-layer interferometry, recombinant human epiregulin immobilized.

T1 sequence (O14944 63-108 limits assumed): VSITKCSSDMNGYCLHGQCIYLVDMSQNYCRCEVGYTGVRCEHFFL

B1: humanized epiregulin neutralizing antibody 1 (hEreg NAb1) (antibody, V domains shown)
VH: HLQLQESGPGLVKSSETLSLTCSVSGGSISSSGYYWGWIRQPPGKGLEWIGSFYYSGNTYYNPSLKSRVTISADTSKSQYSLKLSSVTAADTAVYYCARHPFNWNDHYHYMDVWGNGTTVTVSS
VL: DIQMTQSPSSLSASVGDSVTITCRASQSISNYLNWYQKKPGKAPKVLIYAASSLQSGVPSRFSGSGSGTDFTLTISSLQPEDFATYYCQQSYITSITFGQGTRLEIK
notes: The clone comes from hybridomas of Alloy mice (fully human variable regions) and represents wells M3, M4 and M5; also called humanized epiregulin antibody; M3
With B1, in assay [1], the “IC50 (nM), calculated from HFF proliferation assays” value is 1.8 nM. In addition, in assay [2], the “IC50 of inhibition of HFF proliferation induced by 100 ng/ml rhEreg (GFP fluorescence, CyQUANT, day 3)” value was found to be 0.27 µg/mL. In addition, the “IC50 of inhibition of epiregulin-induced HFF proliferation (rhEreg 100 ng/ml)” value in assay [3] was in the range of 0.1 to 0.3 µg/mL. Also, in assay [4], the Kd (usually the concentration at which binding is half-saturated) came out at 0.038 nM.
